According to US20220119541A1:

Biological target: human GITR (full length, on cells) (human) (UniProt Q9Y5U5)
Test: FACS dot plot, spleen cells of GITR humanized (B-hGITR) mice, FITC against mTcRβ PerCP [panel hIgG1]

Sequence of human GITR (full length, on cells) (human) (Q9Y5U5 26-241): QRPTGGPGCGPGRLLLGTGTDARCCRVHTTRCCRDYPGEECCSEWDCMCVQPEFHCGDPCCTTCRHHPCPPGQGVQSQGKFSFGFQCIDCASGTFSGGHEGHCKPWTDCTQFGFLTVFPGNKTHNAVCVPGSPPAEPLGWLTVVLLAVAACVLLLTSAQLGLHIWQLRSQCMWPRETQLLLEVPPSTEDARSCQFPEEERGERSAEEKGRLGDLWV

Question: Which FL3-H, FL1-H subset (percent of cells in the FITC-high, mTcRβ-positive gate) does the source give for isotype control IgG (antibody) here?
Answer: 1.08%
